Test results taken from article PMC4835091.

B1: FtsZ (purified, WT) [E. coli] / itself (parent)
chain: MFEPMELTNDAVIKVIGVGGGGGNAVEHMVRERIEGVEFFAVNTDAQALRKTAVGQTIQIGSGITKGLGAGANPEVGRNAADEDRDALRAALEGADMVFIAAGMGGGTGTGAAPVVAEVAKDLGILTVAVVTKPFNFEGKKRMAFAEQGITELSKHVDSLITIPNDKLLKVLGRGISLLDAFGAANDVLKGAVQGIAELITRPGLMNVDFADVRTVMSEMGYAMMGSGVASGEDRAEEAAEMAISSPLLEDIDLSGARGVLVNITAGFDLRLDEFETVGNTIRAFASDNATVVIGTSLDPDMNDELRVTVVATGIGMDKRPEITLVTNKQVQQPVMDRYQQHGMAPLTQEQKPVAKVVNDNAPQTAKEPDYLDIPAFLRKQAD
B2: FtsZ (purified, WT) [E. coli] / ZapD (purified) [E. coli] (parent)
chain 1: MQTQVLFEHPLNEKMRTWLRIEFLIQQLTVNLPIVDHAGALHFFRNVSELLDVFERGEVRTELLKELDRQQRKLQTWIGVPGVDQSRIEALIQQLKAAGSVLISAPRIGQFLREDRLIALVRQRLSIPGGCCSFDLPTLHIWLHLPQAQRDSQVETWIASLNPLTQALTMVLDLIRQSAPFRKQTSLNGFYQDNGGDADLLRLNLSLDSQLYPQISGHKSRFAIRFMPLDTENGQVPERLDFELACC
chain 2: B1 chain

What was measured:
[1] = variants of: B1; assay: sedimentation (co-pelleting) assay, SDS-PAGE quantification; details: with itself, 50 mM K-MOPS pH 6.5, 50 mM KCl, 2.5 mM MgCl2, 1 mM GTP, 3 µM BSA, read off a plot
[2] = variants of: B2; assay: co-sedimentation assay, SDS-PAGE quantification; details: with ZapD (purified) [E. coli], 50 mM K-MOPS pH 6.5, 50 mM KCl, 2.5 mM MgCl2, 1 mM GTP, 3 µM BSA, read off a plot

response (% FtsZ in pellet) ([1]; 5 µM FtsZ with ZapD at 1:0.2)	response (% FtsZ in pellet) ([1]; 5 µM FtsZ with ZapD at 1:1)	response (% FtsZ in pellet) ([1]; 5 µM FtsZ, no ZapD)	response (% ZapD in pellet) ([2]; 5 µM FtsZ with ZapD at 1:1)	response (% ZapD in pellet) ([2]; 5 µM FtsZ with ZapD at 1:0.2)	Variant
29	41	27			MFEPMELTNDAVIKVIGVGGGGGNAVEHMVRERIEGVEFFAVNTDAQALRKTAVGQTIQIGSGITKGLGAGANPEVGRNAADEDRDALRAALEGADMVFIAAGMGGGTGTGAAPVVAEVAKDLGILTVAVVTKPFNFEGKKRMAFAEQGITELSKHVDSLITIPNDKLLKVLGRGISLLDAFGAANDVLKGAVQGIAELITRPGLMNVDFADVRTVMSEMGYAMMGSGVASGEDRAEEAAEMAISSPLLEDIDLSGARGVLVNITAGFDLRLDEFETVGNTIRAFASDNATVVIGTSLDPDMNDELRVTVVATGIGMDKRPEITLVTNKQVQQPVMDRYQQHGMAPLTQEQKPVAKVVNDNAPQTAKEPDYLDIPAFLRDQAD [chain 1 K380D]
45	66	27			MFEPMELTNDAVIKVIGVGGGGGNAVEHMVRERIEGVEFFAVNTDAQALRKTAVGQTIQIGSGITKGLGAGANPEVGRNAADEDRDALRAALEGADMVFIAAGMGGGTGTGAAPVVAEVAKDLGILTVAVVTKPFNFEGKKRMAFAEQGITELSKHVDSLITIPNDKLLKVLGRGISLLDAFGAANDVLKGAVQGIAELITRPGLMNVDFADVRTVMSEMGYAMMGSGVASGEDRAEEAAEMAISSPLLEDIDLSGARGVLVNITAGFDLRLDEFETVGNTIRAFASDNATVVIGTSLDPDMNDELRVTVVATGIGMDKRPEITLVTNKQVQQPVMDRYQQHGMAPLTQEQKPVAKVVNDNAPQTAKEPDYLDIPAFLRKQAK [chain 1 D383K]
43	69	24			MFEPMELTNDAVIKVIGVGGGGGNAVEHMVRERIEGVEFFAVNTDAQALRKTAVGQTIQIGSGITKGLGAGANPEVGRNAADEDRDALRAALEGADMVFIAAGMGGGTGTGAAPVVAEVAKDLGILTVAVVTKPFNFEGKKRMAFAEQGITELSKHVDSLITIPNDKLLKVLGRGISLLDAFGAANDVLKGAVQGIAELITRPGLMNVDFADVRTVMSEMGYAMMGSGVASGEDRAEEAAEMAISSPLLEDIDLSGARGVLVNITAGFDLRLDEFETVGNTIRAFASDNATVVIGTSLDPDMNDELRVTVVATGIGMDKRPEITLVTNKQVQQPVMDRYQQHGMAPLTQEQKPVAKVVNDNAPQTAKEPDYLDIPAFLRQQQQ [chain 1 K380Q A382Q D383Q]
43	64	23			MFEPMELTNDAVIKVIGVGGGGGNAVEHMVRERIEGVEFFAVNTDAQALRKTAVGQTIQIGSGITKGLGAGANPEVGRNAADEDRDALRAALEGADMVFIAAGMGGGTGTGAAPVVAEVAKDLGILTVAVVTKPFNFEGKKRMAFAEQGITELSKHVDSLITIPNDKLLKVLGRGISLLDAFGAANDVLKGAVQGIAELITRPGLMNVDFADVRTVMSEMGYAMMGSGVASGEDRAEEAAEMAISSPLLEDIDLSGARGVLVNITAGFDLRLDEFETVGNTIRAFASDNATVVIGTSLDPDMNDELRVTVVATGIGMDKRPEITLVTNKQVQQPVMDRYQQHGMAPLTQEQKPVAKVVNDNAPQTAKEPDYLDIPAFLRDQAK [chain 1 K380D D383K]
39	50	23			MFEPMELTNDAVIKVIGVGGGGGNAVEHMVRERIEGVEFFAVNTDAQALRKTAVGQTIQIGSGITKGLGAGANPEVGRNAADEDRDALRAALEGADMVFIAAGMGGGTGTGAAPVVAEVAKDLGILTVAVVTKPFNFEGKKRMAFAEQGITELSKHVDSLITIPNDKLLKVLGRGISLLDAFGAANDVLKGAVQGIAELITRPGLMNVDFADVRTVMSEMGYAMMGSGVASGEDRAEEAAEMAISSPLLEDIDLSGARGVLVNITAGFDLRLDEFETVGNTIRAFASDNATVVIGTSLDPDMNDELRVTVVATGIGMDKRPEITLVTNKQVQQPVMDRYQQHGMAPLTQEQKPVAKVVNDNAPQTAKEPDYLDIPAFLRRQAR [chain 1 K380R D383R]
			49		chain 2 MFEPMELTNDAVIKVIGVGGGGGNAVEHMVRERIEGVEFFAVNTDAQALRKTAVGQTIQIGSGITKGLGAGANPEVGRNAADEDRDALRAALEGADMVFIAAGMGGGTGTGAAPVVAEVAKDLGILTVAVVTKPFNFEGKKRMAFAEQGITELSKHVDSLITIPNDKLLKVLGRGISLLDAFGAANDVLKGAVQGIAELITRPGLMNVDFADVRTVMSEMGYAMMGSGVASGEDRAEEAAEMAISSPLLEDIDLSGARGVLVNITAGFDLRLDEFETVGNTIRAFASDNATVVIGTSLDPDMNDELRVTVVATGIGMDKRPEITLVTNKQVQQPVMDRYQQHGMAPLTQEQKPVAKVVNDNAPQTAKEPDYLDIPAFLRDQAK [chain 2 K380D D383K]
			35	16	chain 2 MFEPMELTNDAVIKVIGVGGGGGNAVEHMVRERIEGVEFFAVNTDAQALRKTAVGQTIQIGSGITKGLGAGANPEVGRNAADEDRDALRAALEGADMVFIAAGMGGGTGTGAAPVVAEVAKDLGILTVAVVTKPFNFEGKKRMAFAEQGITELSKHVDSLITIPNDKLLKVLGRGISLLDAFGAANDVLKGAVQGIAELITRPGLMNVDFADVRTVMSEMGYAMMGSGVASGEDRAEEAAEMAISSPLLEDIDLSGARGVLVNITAGFDLRLDEFETVGNTIRAFASDNATVVIGTSLDPDMNDELRVTVVATGIGMDKRPEITLVTNKQVQQPVMDRYQQHGMAPLTQEQKPVAKVVNDNAPQTAKEPDYLDIPAFLRRQAR [chain 2 K380R D383R]
			60	71	chain 2 MFEPMELTNDAVIKVIGVGGGGGNAVEHMVRERIEGVEFFAVNTDAQALRKTAVGQTIQIGSGITKGLGAGANPEVGRNAADEDRDALRAALEGADMVFIAAGMGGGTGTGAAPVVAEVAKDLGILTVAVVTKPFNFEGKKRMAFAEQGITELSKHVDSLITIPNDKLLKVLGRGISLLDAFGAANDVLKGAVQGIAELITRPGLMNVDFADVRTVMSEMGYAMMGSGVASGEDRAEEAAEMAISSPLLEDIDLSGARGVLVNITAGFDLRLDEFETVGNTIRAFASDNATVVIGTSLDPDMNDELRVTVVATGIGMDKRPEITLVTNKQVQQPVMDRYQQHGMAPLTQEQKPVAKVVNDNAPQTAKEPDYLDIPAFLRKQAK [chain 2 D383K]
			10	14	chain 2 MFEPMELTNDAVIKVIGVGGGGGNAVEHMVRERIEGVEFFAVNTDAQALRKTAVGQTIQIGSGITKGLGAGANPEVGRNAADEDRDALRAALEGADMVFIAAGMGGGTGTGAAPVVAEVAKDLGILTVAVVTKPFNFEGKKRMAFAEQGITELSKHVDSLITIPNDKLLKVLGRGISLLDAFGAANDVLKGAVQGIAELITRPGLMNVDFADVRTVMSEMGYAMMGSGVASGEDRAEEAAEMAISSPLLEDIDLSGARGVLVNITAGFDLRLDEFETVGNTIRAFASDNATVVIGTSLDPDMNDELRVTVVATGIGMDKRPEITLVTNKQVQQPVMDRYQQHGMAPLTQEQKPVAKVVNDNAPQTAKEPDYLDIPAFLRDQAD [chain 2 K380D]
			42	42	chain 2 MFEPMELTNDAVIKVIGVGGGGGNAVEHMVRERIEGVEFFAVNTDAQALRKTAVGQTIQIGSGITKGLGAGANPEVGRNAADEDRDALRAALEGADMVFIAAGMGGGTGTGAAPVVAEVAKDLGILTVAVVTKPFNFEGKKRMAFAEQGITELSKHVDSLITIPNDKLLKVLGRGISLLDAFGAANDVLKGAVQGIAELITRPGLMNVDFADVRTVMSEMGYAMMGSGVASGEDRAEEAAEMAISSPLLEDIDLSGARGVLVNITAGFDLRLDEFETVGNTIRAFASDNATVVIGTSLDPDMNDELRVTVVATGIGMDKRPEITLVTNKQVQQPVMDRYQQHGMAPLTQEQKPVAKVVNDNAPQTAKEPDYLDIPAFLRQQQQ [chain 2 K380Q A382Q D383Q]
